Data: patent US10400230B2, “Protease variants and polynucleotides encoding same” (NOVOZYMES A/S, priority 2014, dated 2019)

Test: Determination of binding constants of inhibitor (NNIC) in Model B detergent, Suc-AAPF-pNA read-out
Type: biochemical
Details: Ki of variant with the mutation relative to variant without the mutation, <1.0 beneficial
Procedure: Purified protease variants are pre-diluted to approximately 0.2 mg/ml in dilution buffer. 40 μl diluted protease is then mixed with 40 μl inhibitor solution (Z-Gly-Ala-NHCH(CH2C6H4pOH)C(OH)(SO3Na)—H, wherein Z is benzyloxycarbonyl) or 40 μl 4-FPBA solution in the well of a 96 well microtiter plate (Nunc F 96-MTP). […] After 10 min mixing of protease and inhibitor at room temperature, 30 μl of the mixture is transferred to a microtiter plate (Nunc U96 PP 0.5 ml) with 270 μl Model B detergent in the wells resulting in inhibitor concentrations of 0-30 μM and 4-FPBA concentrations of 0-6000 μM. Protease, inhibitor and detergent is mixed for 1 hour using magnetic bars for 1 hour at room temperature to reach equilibrium. Then 20 μl is transferred to a microtiter plate (Nunc F 96-MTP). 100 μl substrate solution is added and after 5 sec mixing absorbance at 405 nm is measured every 20 sec for 5 min on a SpectraMax Plus reader. Slope from linear regression of initial increase in absorbance at 405 nm is used for calculation of apparent binding constants.
It is assumed that protease and inhibitor react according to the equation: E+I ? EI
Where E is the protease, I is the inhibitor and EI is the protease-inhibitor complex. […] The concentration of enzyme-inhibitor in the detergent solution is then given by:
where Etot is the total protease concentration ([Etot]=[E]+[EI]), Itot is the total inhibitor concentration ([Itot]=[I]+[EI]), and Ki is the equilibrium binding constant for the reaction. The measured slopes V are given by:
where V0 is the slope without inhibitor added. To calculate apparent binding constant Ki least square fitting of measured slopes at various inhibitor concentrations to this equation is performed with Ki and V0 as variables.
The Ki for the parent protease and for each variant was calculated as described above
Having the Ki for each variant, it is possible to calculate the effect of a single mutation, if data are available for at least two variants that differ only by that mutation. In this case, the relative Ki for the mutation is calculated:
[formula] A lower Ki is desirable, as a satisfactory inhibition can be obtained at a lower inhibitor concentration, so beneficial mutations have a relative Ki<1.0 The following table show such relative Kimutation. Each row show: • a mutation (column 1: “Mutation”) • a protease variant (relative to SEQ ID NO: 2) that comprise the mutation from column 1 (column 2: “Variant with the mutation”) • another protease variant (relative to SEQ ID NO: 2), that differs from the one in column 2 only by not having the mutation in column 1 (column 3: “Variant without the mutation”) • Relative Kimutation for the mutation in column 1, in the context of the variant in column 3, measured in Model B detergent (column 4: “inhibitor binding in Model B”) • Relative Kimutation for the mutation in column 1, in the context of the variant in column 3, measured in Tris buffer at pH 8 (column 5: “inhibitor binding in Tris buffer pH 8”)
Ki were calculated as shown in Example 3. The Improvement Factor (IF) or Relative

Row | Inhibitor-binding relative Kimutation, inhibitor binding in Model B | Molecule
1 | 0.36 | S27K, S173P, G174K, S175P, F180Y, L184F, Q198E, N199K, T297P: TY145 protease (SEQ ID NO 3) variant with these substitutions (protein, listed as Bacillus sp.) AVPSTQTPWGIKSIYNDQSITKTTGGKGIKVAVLDTGVYTSHLDLAGSAEQCKDFTQSNPLVDGSCTDRQGHGTHVAGTVLAHGGSNGQGVYGVAPQAKLWAYKVLGDNGSGYSDDIAAAIRHVADEASRTGSKVVINMSLGSSAKDSLIASAVDYAYGKGVLIVAAAGNSGPKPNTIGYPGGFVNAVAVAALENVQEKGTYRVADFSSRGNPATAGDYIIQERDIEVSAPGASVESTWYTGGYNTISGTSMATPHVAGLAAKIWSANTSLSHSQLRTELQNRAKVYDIKGGIGAGPGDDYASGFGYPRVK
2 | 0.22 | S27K, S173P, G174K, S175P, F180Y, L184F, Q198E, N199R, T297P: TY145 protease (SEQ ID NO 3) variant with these substitutions (protein, listed as Bacillus sp.) AVPSTQTPWGIKSIYNDQSITKTTGGKGIKVAVLDTGVYTSHLDLAGSAEQCKDFTQSNPLVDGSCTDRQGHGTHVAGTVLAHGGSNGQGVYGVAPQAKLWAYKVLGDNGSGYSDDIAAAIRHVADEASRTGSKVVINMSLGSSAKDSLIASAVDYAYGKGVLIVAAAGNSGPKPNTIGYPGGFVNAVAVAALENVQERGTYRVADFSSRGNPATAGDYIIQERDIEVSAPGASVESTWYTGGYNTISGTSMATPHVAGLAAKIWSANTSLSHSQLRTELQNRAKVYDIKGGIGAGPGDDYASGFGYPRVK
3 | 0.24 | S173P, S175P, F180Y, L184Y: TY145 protease (SEQ ID NO 3) variant with these substitutions (protein, listed as Bacillus sp.) AVPSTQTPWGIKSIYNDQSITKTTGGSGIKVAVLDTGVYTSHLDLAGSAEQCKDFTQSNPLVDGSCTDRQGHGTHVAGTVLAHGGSNGQGVYGVAPQAKLWAYKVLGDNGSGYSDDIAAAIRHVADEASRTGSKVVINMSLGSSAKDSLIASAVDYAYGKGVLIVAAAGNSGPGPNTIGYPGGYVNAVAVAALENVQQNGTYRVADFSSRGNPATAGDYIIQERDIEVSAPGASVESTWYTGGYNTISGTSMATPHVAGLAAKIWSANTSLSHSQLRTELQNRAKVYDIKGGIGAGTGDDYASGFGYPRVK
4 | 0.18 | S27K, S171N, S173P, G174R, S175P, F180Y, L184Y, Q198E, T297P: TY145 protease (SEQ ID NO 3) variant with these substitutions (protein, listed as Bacillus sp.) AVPSTQTPWGIKSIYNDQSITKTTGGKGIKVAVLDTGVYTSHLDLAGSAEQCKDFTQSNPLVDGSCTDRQGHGTHVAGTVLAHGGSNGQGVYGVAPQAKLWAYKVLGDNGSGYSDDIAAAIRHVADEASRTGSKVVINMSLGSSAKDSLIASAVDYAYGKGVLIVAAAGNNGPRPNTIGYPGGYVNAVAVAALENVQENGTYRVADFSSRGNPATAGDYIIQERDIEVSAPGASVESTWYTGGYNTISGTSMATPHVAGLAAKIWSANTSLSHSQLRTELQNRAKVYDIKGGIGAGPGDDYASGFGYPRVK
5 | 0.21 | S27K, S173P, G174K, S175P, F180Y, L184Y, Q198E, N199K, T297P: TY145 protease (SEQ ID NO 3) variant with these substitutions (protein, listed as Bacillus sp.) AVPSTQTPWGIKSIYNDQSITKTTGGKGIKVAVLDTGVYTSHLDLAGSAEQCKDFTQSNPLVDGSCTDRQGHGTHVAGTVLAHGGSNGQGVYGVAPQAKLWAYKVLGDNGSGYSDDIAAAIRHVADEASRTGSKVVINMSLGSSAKDSLIASAVDYAYGKGVLIVAAAGNSGPKPNTIGYPGGYVNAVAVAALENVQEKGTYRVADFSSRGNPATAGDYIIQERDIEVSAPGASVESTWYTGGYNTISGTSMATPHVAGLAAKIWSANTSLSHSQLRTELQNRAKVYDIKGGIGAGPGDDYASGFGYPRVK
6 | 0.32 | S27K, S173P, G174K, S175P, F180Y, L184Y, Q197K, Q198E, T297P: TY145 protease (SEQ ID NO 3) variant with these substitutions (protein, listed as Bacillus sp.) AVPSTQTPWGIKSIYNDQSITKTTGGKGIKVAVLDTGVYTSHLDLAGSAEQCKDFTQSNPLVDGSCTDRQGHGTHVAGTVLAHGGSNGQGVYGVAPQAKLWAYKVLGDNGSGYSDDIAAAIRHVADEASRTGSKVVINMSLGSSAKDSLIASAVDYAYGKGVLIVAAAGNSGPKPNTIGYPGGYVNAVAVAALENVKENGTYRVADFSSRGNPATAGDYIIQERDIEVSAPGASVESTWYTGGYNTISGTSMATPHVAGLAAKIWSANTSLSHSQLRTELQNRAKVYDIKGGIGAGPGDDYASGFGYPRVK
7 | 0.50 | S173P, S175P, F180Y, L184W: TY145 protease (SEQ ID NO 3) variant with these substitutions (protein, listed as Bacillus sp.) AVPSTQTPWGIKSIYNDQSITKTTGGSGIKVAVLDTGVYTSHLDLAGSAEQCKDFTQSNPLVDGSCTDRQGHGTHVAGTVLAHGGSNGQGVYGVAPQAKLWAYKVLGDNGSGYSDDIAAAIRHVADEASRTGSKVVINMSLGSSAKDSLIASAVDYAYGKGVLIVAAAGNSGPGPNTIGYPGGWVNAVAVAALENVQQNGTYRVADFSSRGNPATAGDYIIQERDIEVSAPGASVESTWYTGGYNTISGTSMATPHVAGLAAKIWSANTSLSHSQLRTELQNRAKVYDIKGGIGAGTGDDYASGFGYPRVK
8 | 0.57 | S27K, S171N, S173P, G174R, S175P, F180Y, L184W, Q198E, T297P: TY145 protease (SEQ ID NO 3) variant with these substitutions (protein, listed as Bacillus sp.) AVPSTQTPWGIKSIYNDQSITKTTGGKGIKVAVLDTGVYTSHLDLAGSAEQCKDFTQSNPLVDGSCTDRQGHGTHVAGTVLAHGGSNGQGVYGVAPQAKLWAYKVLGDNGSGYSDDIAAAIRHVADEASRTGSKVVINMSLGSSAKDSLIASAVDYAYGKGVLIVAAAGNNGPRPNTIGYPGGWVNAVAVAALENVQENGTYRVADFSSRGNPATAGDYIIQERDIEVSAPGASVESTWYTGGYNTISGTSMATPHVAGLAAKIWSANTSLSHSQLRTELQNRAKVYDIKGGIGAGPGDDYASGFGYPRVK
9 | 0.37 | S173P, S175P, F180Y, L184D: TY145 protease (SEQ ID NO 3) variant with these substitutions (protein, listed as Bacillus sp.) AVPSTQTPWGIKSIYNDQSITKTTGGSGIKVAVLDTGVYTSHLDLAGSAEQCKDFTQSNPLVDGSCTDRQGHGTHVAGTVLAHGGSNGQGVYGVAPQAKLWAYKVLGDNGSGYSDDIAAAIRHVADEASRTGSKVVINMSLGSSAKDSLIASAVDYAYGKGVLIVAAAGNSGPGPNTIGYPGGDVNAVAVAALENVQQNGTYRVADFSSRGNPATAGDYIIQERDIEVSAPGASVESTWYTGGYNTISGTSMATPHVAGLAAKIWSANTSLSHSQLRTELQNRAKVYDIKGGIGAGTGDDYASGFGYPRVK
10 | 0.36 | S173P, S175P, F180Y, R224D: TY145 protease (SEQ ID NO 3) variant with these substitutions (protein, listed as Bacillus sp.) AVPSTQTPWGIKSIYNDQSITKTTGGSGIKVAVLDTGVYTSHLDLAGSAEQCKDFTQSNPLVDGSCTDRQGHGTHVAGTVLAHGGSNGQGVYGVAPQAKLWAYKVLGDNGSGYSDDIAAAIRHVADEASRTGSKVVINMSLGSSAKDSLIASAVDYAYGKGVLIVAAAGNSGPGPNTIGYPGGLVNAVAVAALENVQQNGTYRVADFSSRGNPATAGDYIIQEDDIEVSAPGASVESTWYTGGYNTISGTSMATPHVAGLAAKIWSANTSLSHSQLRTELQNRAKVYDIKGGIGAGTGDDYASGFGYPRVK
